The data set has as its system Escherichia coli TOP10. As to the kind of experiment: shrunken log2 fold change of peptide-encoding DNA abundance (4.5 h post-induction vs induction); higher = less antimicrobial activity (less host growth inhibition). The conditions noted are these: time post-induction: 4.5 h; library: site-saturation at positions 5, 18, 19, 20.
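Note: peptides expressed intracellularly from a pBAD plasmid library in pooled LB shake-flask culture, induced with 0.3% L-arabinose, DNA abundance read by NGS, three biological replicates, DESeq2 with apeglm shrinkage.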

Consider RRIRHRPPRLPRPRPRPGRRPRP, for which the “shrunken log2 fold change” value was 0.525.
Regarding RRIRMRPPRLPRPRPRPNKTPRP, the “shrunken log2 fold change” value is -0.0156.
With RRIRTRPPRLPRPRPRPCDQPRP, the “shrunken log2 fold change” value is -0.252.
As for RRIRPRPPRLPRPRPRPWTMPRP, the “shrunken log2 fold change” value worked out at 0.0177.
Take RRIRNRPPRLPRPRPRPMITPRP: the “shrunken log2 fold change” value was -0.0996.
Then RRIRKRPPRLPRPRPRPMQLPRP, with 0.197; and RRIRDRPPRLPRPRPRPHTWPRP, with -0.491; and RRIRMRPPRLPRPRPRPYIIPRP, with -0.151.
Then RRIRQRPPRLPRPRPRPKEDPRP, with -0.0372; and RRIRGRPPRLPRPRPRPCPGPRP, with -0.0819.
Turning to RRIRARPPRLPRPRPRPSGGPRP, the “shrunken log2 fold change” value worked out at 0.115.
As for RRIRCRPPRLPRPRPRPPMSPRP, the “shrunken log2 fold change” value is -0.178.
On to RRIRWRPPRLPRPRPRPWKSPRP, for which the “shrunken log2 fold change” value was 0.0574.
Turning to RRIRERPPRLPRPRPRPEDNPRP, the “shrunken log2 fold change” value amounted to 0.0813.
Consider RRIRTRPPRLPRPRPRPFPWPRP, for which the “shrunken log2 fold change” value is -0.125.
RRIRERPPRLPRPRPRPIVDPRP: the “shrunken log2 fold change” value is -0.204.
For the sequence RRIRYRPPRLPRPRPRPGCLPRP, the “shrunken log2 fold change” value is 1.79.
On to RRIRIRPPRLPRPRPRPTQQPRP, for which the “shrunken log2 fold change” value came out at 0.0936.
Regarding RRIRDRPPRLPRPRPRPIIRPRP, the “shrunken log2 fold change” value was -0.0604.
Turning to RRIRQRPPRLPRPRPRPINTPRP, the “shrunken log2 fold change” value was -0.129.
As to RRIRRRPPRLPRPRPRPPYPPRP, the “shrunken log2 fold change” value was 0.245.
Regarding RRIRSRPPRLPRPRPRPQWQPRP, the “shrunken log2 fold change” value worked out at 0.0358.
For RRIRSRPPRLPRPRPRPFKMPRP, the “shrunken log2 fold change” value is -0.357.
With RRIRHRPPRLPRPRPRPHGDPRP, the “shrunken log2 fold change” value is -0.01.
Then RRIRHRPPRLPRPRPRPYYEPRP, with 0.0317; and RRIRHRPPRLPRPRPRPLWRPRP, with 0.57.
Consider RRIRWRPPRLPRPRPRPQPWPRP, for which the “shrunken log2 fold change” value stood at 0.363.
Then RRIRVRPPRLPRPRPRPWFSPRP, with -0.128; and RRIRGRPPRLPRPRPRPAWNPRP, with 0.378.
Consider RRIRWRPPRLPRPRPRPFICPRP, for which the “shrunken log2 fold change” value was -0.309.
In the case of RRIRVRPPRLPRPRPRPNQQPRP, the “shrunken log2 fold change” value worked out at 0.0476.
Regarding RRIRFRPPRLPRPRPRPQMAPRP, the “shrunken log2 fold change” value worked out at 0.168.
Regarding RRIRARPPRLPRPRPRPGGTPRP, the “shrunken log2 fold change” value amounted to 0.41.
In the case of RRIRKRPPRLPRPRPRPISYPRP, the “shrunken log2 fold change” value is -0.0078.
Then RRIRQRPPRLPRPRPRPLYQPRP, with -0.185; and RRIRGRPPRLPRPRPRPEPGPRP, with 1.33; and RRIRARPPRLPRPRPRPVTKPRP, with 0.128.
Regarding RRIRGRPPRLPRPRPRPVHKPRP, the “shrunken log2 fold change” value turned out to be 0.518.
As for RRIRLRPPRLPRPRPRPQCRPRP, the “shrunken log2 fold change” value stood at 0.0156.
Take RRIRWRPPRLPRPRPRPSCLPRP: the “shrunken log2 fold change” value was -0.0337.
Then RRIRIRPPRLPRPRPRPMPEPRP, with -0.11; and RRIRVRPPRLPRPRPRPWLGPRP, with -0.0696.
For RRIRQRPPRLPRPRPRPADWPRP, the “shrunken log2 fold change” value was found to be 0.258.
In the case of RRIRYRPPRLPRPRPRPHKAPRP, the “shrunken log2 fold change” value is -0.0167.
As for RRIRMRPPRLPRPRPRPRHKPRP, the “shrunken log2 fold change” value worked out at 0.402.
As for RRIRFRPPRLPRPRPRPIFRPRP, the “shrunken log2 fold change” value is -0.0966.
On to RRIRVRPPRLPRPRPRPQGPPRP, for which the “shrunken log2 fold change” value was 0.107.
Turning to RRIRERPPRLPRPRPRPFSHPRP, the “shrunken log2 fold change” value is -0.153.
Then RRIRRRPPRLPRPRPRPPDLPRP, with 0.66; and RRIRCRPPRLPRPRPRPEFMPRP, with 0.118; and RRIRNRPPRLPRPRPRPMPGPRP, with 0.0352.
The same measure for RRIRQRPPRLPRPRPRPWYTPRP: -0.132; for RRIRTRPPRLPRPRPRPFMNPRP: -0.787; for RRIRMRPPRLPRPRPRPCWRPRP: 0.14.
The same measure for RRIRRRPPRLPRPRPRPISQPRP: -0.395; for RRIRERPPRLPRPRPRPWVVPRP: -0.151; for RRIRHRPPRLPRPRPRPHSRPRP: 0.0183.
Consider RRIRMRPPRLPRPRPRPCVPPRP, for which the “shrunken log2 fold change” value was found to be 0.209.
RRIRIRPPRLPRPRPRPRYPPRP: the “shrunken log2 fold change” value is -0.0444.
With RRIRFRPPRLPRPRPRPPDCPRP, the “shrunken log2 fold change” value turned out to be 0.191.
As for RRIRPRPPRLPRPRPRPQVVPRP, the “shrunken log2 fold change” value is -0.00675.
With RRIRCRPPRLPRPRPRPSDHPRP, the “shrunken log2 fold change” value was -0.714.
On to RRIRYRPPRLPRPRPRPQWPPRP, for which the “shrunken log2 fold change” value is -0.533.
Take RRIRGRPPRLPRPRPRPTNNPRP: the “shrunken log2 fold change” value amounted to 0.217.
As for RRIRQRPPRLPRPRPRPMYDPRP, the “shrunken log2 fold change” value is -0.0385.
As for RRIRARPPRLPRPRPRPPYVPRP, the “shrunken log2 fold change” value is -0.131.
Consider RRIRDRPPRLPRPRPRPDCPPRP, for which the “shrunken log2 fold change” value is -0.0117.
In the case of RRIRPRPPRLPRPRPRPEQYPRP, the “shrunken log2 fold change” value is -0.226.
As for RRIRFRPPRLPRPRPRPTMLPRP, the “shrunken log2 fold change” value is -0.423.
Regarding RRIRTRPPRLPRPRPRPGPTPRP, the “shrunken log2 fold change” value was 0.455.
Consider RRIRARPPRLPRPRPRPWFPPRP, for which the “shrunken log2 fold change” value was -0.0966.
As for RRIRKRPPRLPRPRPRPMDEPRP, the “shrunken log2 fold change” value was 0.966.
Turning to RRIRARPPRLPRPRPRPYCFPRP, the “shrunken log2 fold change” value was -0.178.
Consider RRIRWRPPRLPRPRPRPVAHPRP, for which the “shrunken log2 fold change” value was determined as 0.00472.
For RRIRRRPPRLPRPRPRPGHQPRP, the “shrunken log2 fold change” value was 0.342.
The same measure for RRIRNRPPRLPRPRPRPNFTPRP: -0.197; for RRIRHRPPRLPRPRPRPTYDPRP: -0.0607.
RRIRMRPPRLPRPRPRPCNEPRP: the “shrunken log2 fold change” value was -0.249.
For the sequence RRIRPRPPRLPRPRPRPIILPRP, the “shrunken log2 fold change” value is -0.0642.
For RRIRCRPPRLPRPRPRPHILPRP, the “shrunken log2 fold change” value was -0.476.
Take RRIRKRPPRLPRPRPRPYNFPRP: the “shrunken log2 fold change” value is -0.384.
Then RRIRFRPPRLPRPRPRPEIRPRP, with 0.0106.
As for RRIRIRPPRLPRPRPRPRPGPRP, the “shrunken log2 fold change” value is 0.618.
Regarding RRIRPRPPRLPRPRPRPLNYPRP, the “shrunken log2 fold change” value is -0.615.
With RRIRKRPPRLPRPRPRPTIDPRP, the “shrunken log2 fold change” value amounted to 0.128.
For the sequence RRIRNRPPRLPRPRPRPRNYPRP, the “shrunken log2 fold change” value is -0.123.
As to RRIRRRPPRLPRPRPRPMANPRP, the “shrunken log2 fold change” value worked out at 0.136.
As to RRIRHRPPRLPRPRPRPLLHPRP, the “shrunken log2 fold change” value was -0.238.
Take RRIRLRPPRLPRPRPRPECMPRP: the “shrunken log2 fold change” value was found to be 0.442.
In the case of RRIRVRPPRLPRPRPRPRDLPRP, the “shrunken log2 fold change” value turned out to be 0.0448.
On to RRIRKRPPRLPRPRPRPRPYPRP, for which the “shrunken log2 fold change” value was 0.182.
RRIRARPPRLPRPRPRPKKHPRP: the “shrunken log2 fold change” value was 0.417.
On to RRIRARPPRLPRPRPRPGPWPRP, for which the “shrunken log2 fold change” value came to 0.193.
The same measure for RRIRDRPPRLPRPRPRPTRWPRP: 1.38.
Take RRIRGRPPRLPRPRPRPTGSPRP: the “shrunken log2 fold change” value is 0.864.
RRIRSRPPRLPRPRPRPSIIPRP: the “shrunken log2 fold change” value is -0.253.
Then RRIRRRPPRLPRPRPRPDWGPRP, with 0.157.
As for RRIRRRPPRLPRPRPRPLWEPRP, the “shrunken log2 fold change” value is 0.378.
For RRIRSRPPRLPRPRPRPDRNPRP, the “shrunken log2 fold change” value was -0.228.
As to RRIRARPPRLPRPRPRPDQPPRP, the “shrunken log2 fold change” value worked out at 0.0452.
As to RRIRYRPPRLPRPRPRPTWEPRP, the “shrunken log2 fold change” value was -0.0387.
Turning to RRIRYRPPRLPRPRPRPYFDPRP, the “shrunken log2 fold change” value is -0.27.
The same measure for RRIRRRPPRLPRPRPRPAWLPRP: 0.505; for RRIRLRPPRLPRPRPRPPRWPRP: 0.408; for RRIRSRPPRLPRPRPRPGESPRP: 0.249.
Take RRIRSRPPRLPRPRPRPVKAPRP: the “shrunken log2 fold change” value is 0.0824.
With RRIRSRPPRLPRPRPRPTMFPRP, the “shrunken log2 fold change” value was -0.0103.
For RRIRWRPPRLPRPRPRPLFVPRP, the “shrunken log2 fold change” value is -0.076.
In the case of RRIRARPPRLPRPRPRPQYYPRP, the “shrunken log2 fold change” value was -0.452.
Take RRIRRRPPRLPRPRPRPIMPPRP: the “shrunken log2 fold change” value was -0.188.
Regarding RRIRRRPPRLPRPRPRPRYRPRP, the “shrunken log2 fold change” value was -0.0166.
Then RRIRIRPPRLPRPRPRPHHWPRP, with -0.18.
The same measure for RRIRMRPPRLPRPRPRPFRDPRP: 0.00601; for RRIRRRPPRLPRPRPRPVSTPRP: -0.134.
For RRIRFRPPRLPRPRPRPCLSPRP, the “shrunken log2 fold change” value is -0.0617.
RRIRRRPPRLPRPRPRPHPEPRP: the “shrunken log2 fold change” value turned out to be 0.0463.
For the sequence RRIRPRPPRLPRPRPRPLCMPRP, the “shrunken log2 fold change” value is -0.444.
Take RRIRFRPPRLPRPRPRPETYPRP: the “shrunken log2 fold change” value is -0.0354.
As to RRIRIRPPRLPRPRPRPKFRPRP, the “shrunken log2 fold change” value is -0.0682.
Then RRIRIRPPRLPRPRPRPLSWPRP, with -0.0609; and RRIRARPPRLPRPRPRPRLMPRP, with 0.216; and RRIRNRPPRLPRPRPRPMNEPRP, with 0.0961.
The same measure for RRIRHRPPRLPRPRPRPNCVPRP: -0.0146; for RRIRHRPPRLPRPRPRPTVDPRP: -0.0548; for RRIRRRPPRLPRPRPRPNSKPRP: -0.00313.

(Values after the supplement of paper PMC9112550, “Optimization of the antimicrobial peptide Bac7 by deep mutational scanning” (BMC Biology, 2022).)
